US20150111822A1

Molecular target: Fzd7/Sdc4 co-receptor complex (mouse) (UniProt Q61090)
Experiment: cell-based or functional assay

Chain of Fzd7/Sdc4 co-receptor complex (mouse) (O35988 24-198, chain 2 of 2, other chains not shown): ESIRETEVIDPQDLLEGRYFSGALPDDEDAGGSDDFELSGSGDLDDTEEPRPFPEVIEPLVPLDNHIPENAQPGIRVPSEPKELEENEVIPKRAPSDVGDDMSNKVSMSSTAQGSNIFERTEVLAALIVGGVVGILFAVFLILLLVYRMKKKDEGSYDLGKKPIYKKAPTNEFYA

Row | increase in the proportion of symmetric cell divisions, COL&Wnt7a against COL alone, 42 h | increase in numbers of Pax7+/YFP+ cells, FN&Wnt7a condition, 72 h | increase in numbers of satellite stem cells, FN&Wnt7a relative to COL&Wnt7a, 72 h | increase in the proportion of symmetric Pax7+/YFP- cell divisions, FN&Wnt7a, 42 h | Substance
1 | 108% | – | – | – | recombinant Wnt7a (R&D Systems) (ligand)
2 | – | 38% | 156% | 163% | human plasma fibronectin (BD biosciences) (from UniProt P02751 32-2296) (ligand)
